Here are results for 7 molecules from patent publication US20160369011A1 (EISAI R AND D MANAGEMENT, published 2016).

Assay [1] deals with T1, human CA9 (carbonic anhydrase IX) (human, UniProt Q16790 38-414). The experiment in a line: SPR (BIAcore), biotin-CA9 captured on CAP chip, antibody 0-50 nM as analyte. How it is done:
To determine if chimerization, and therefore the loss of Cys80-Cys171 disulfide bond, results in structural perturbations leading to loss of antigen binding, the binding affinity of mAbs 155D5, xi155D5, 1-55-2, and xi1-55-2 by surface plasmon resonance was evaluated. Biotinylated ligand (biotin-hTEM1 for 1-55-2, biotin-CA9 for 155D5) was captured on a coated biotin CAP BIAcore chip (GE Healthcare, Piscataway, N.J.) using HBS-EP as running buffer. Final antigen capture levels were 130 RU and 280 RU, respectively, for biotin-TEM1 and biotin-CA9. Serial dilutions of antibody (120 μL of 0-50 nM) were passed over the ligand-coated chip. […] The chip surface was regenerated with 6 M GuHCl, 250 mM NaOH. Sensograms were double referenced and kinetic parameters were determined using BIAEvaluations software (ver. 4.1).

Assay [2] has as its target T1, human CA9 (carbonic anhydrase IX). The experiment in a line: BIAcore T100, mAb captured on anti-human IgG, antigen as analyte, 1:1 model; mAb purified by protein A (ProA); protein A (ProA) purified, not decapped. How it is done: (§1) Antibody concentrations were adjusted to generate 30-40 RU signal when bound to the antigen. […] The sensor surface was washed by injecting HBS-P buffer for 1 min at a flow rate of 50 μL/min. To record the antigen association to the captured mAb, a series of increasing concentrations of antigen was injected for 60 sec at a flow rate of 50 μL/min. The dissociation of antigen was monitored for 30 min at the same flow rate. The sensor surface was regenerated by injecting 3 M MgCl₂ for 1 min and then 30 sec at a flow rate of 30 μL/min. Sensograms were analyzed with Biacore T100 Evaluation Software using a 1:1 Langmuir binding model.
(§2) xi155D5 and the humanized variants were purified by standard protein A chromatography or the decapping method, and their affinity was analyzed using BIAcore (Table 13).

The target is the same in assay [3]. The experiment in a line: BIAcore T100, mAb captured on anti-human IgG, antigen as analyte, 1:1 model; mAb purified by protein A (ProA). As for the experimental part: as §1, §2
The target is the same in assay [4]. The experiment in a line: SPR, ligand CA9, flow cell Fc4.
Assay [5] addresses T2, human endosialin/TEM1 extracellular domain fused to mouse IgG2b Fc (human).
T2 construct: also called TEM1-Fc
T2 chain: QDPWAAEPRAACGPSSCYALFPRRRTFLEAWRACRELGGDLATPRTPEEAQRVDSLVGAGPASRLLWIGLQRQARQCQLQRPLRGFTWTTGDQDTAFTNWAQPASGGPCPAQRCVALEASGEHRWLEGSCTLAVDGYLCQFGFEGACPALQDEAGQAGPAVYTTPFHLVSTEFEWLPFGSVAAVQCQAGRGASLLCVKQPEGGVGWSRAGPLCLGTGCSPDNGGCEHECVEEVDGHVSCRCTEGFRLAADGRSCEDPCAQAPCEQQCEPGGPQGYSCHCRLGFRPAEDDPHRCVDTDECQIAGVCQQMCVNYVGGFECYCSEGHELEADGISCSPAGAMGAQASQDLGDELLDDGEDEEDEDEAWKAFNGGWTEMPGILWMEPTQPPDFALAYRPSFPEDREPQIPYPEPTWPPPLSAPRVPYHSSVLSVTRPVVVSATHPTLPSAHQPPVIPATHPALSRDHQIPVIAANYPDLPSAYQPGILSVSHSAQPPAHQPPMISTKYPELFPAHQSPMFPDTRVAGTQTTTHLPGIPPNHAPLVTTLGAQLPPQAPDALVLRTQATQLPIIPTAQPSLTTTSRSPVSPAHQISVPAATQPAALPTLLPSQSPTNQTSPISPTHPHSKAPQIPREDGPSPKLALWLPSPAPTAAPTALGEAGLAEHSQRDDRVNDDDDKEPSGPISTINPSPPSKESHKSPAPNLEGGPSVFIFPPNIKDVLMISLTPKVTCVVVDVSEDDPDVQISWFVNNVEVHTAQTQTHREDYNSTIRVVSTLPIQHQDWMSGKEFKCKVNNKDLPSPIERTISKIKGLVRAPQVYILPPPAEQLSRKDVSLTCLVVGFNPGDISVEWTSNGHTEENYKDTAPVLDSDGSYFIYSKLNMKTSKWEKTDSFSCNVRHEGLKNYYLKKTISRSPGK
The experiment in a line: SPR, ligand TEM1-Fc, flow cell Fc3.

The target in assay [6] is T2, human endosialin/TEM1 extracellular …. In words: SPR, ligand TEM1-Fc, flow cell Fc4.
In assay [7] the target is T1, human CA9 (carbonic anhydrase IX). The experiment in a line: SPR, ligand CA9, flow cell Fc3.
For assay [8], the target named is T3, human CD73 (human, UniProt P21589 27-547, limits assumed).
T3 construct: also called control antigen
T3 sequence (looked up): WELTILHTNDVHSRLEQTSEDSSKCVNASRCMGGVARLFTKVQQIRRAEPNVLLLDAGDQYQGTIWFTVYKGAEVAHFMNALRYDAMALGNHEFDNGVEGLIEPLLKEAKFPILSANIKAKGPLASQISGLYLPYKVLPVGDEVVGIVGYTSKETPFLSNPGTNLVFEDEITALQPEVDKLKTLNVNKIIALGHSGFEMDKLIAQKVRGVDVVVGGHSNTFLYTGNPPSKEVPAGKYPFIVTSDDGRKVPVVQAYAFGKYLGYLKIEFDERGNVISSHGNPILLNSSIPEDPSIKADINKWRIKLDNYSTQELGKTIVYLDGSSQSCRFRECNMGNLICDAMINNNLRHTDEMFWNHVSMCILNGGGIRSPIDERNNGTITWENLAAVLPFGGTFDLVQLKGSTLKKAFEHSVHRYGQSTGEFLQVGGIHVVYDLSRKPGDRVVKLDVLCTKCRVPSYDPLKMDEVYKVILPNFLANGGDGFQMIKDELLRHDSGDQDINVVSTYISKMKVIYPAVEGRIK
The experiment in a line: ELISA, B cell culture supernatant, 2nd screening.

Assay [9] has as its target T4, human MSLN (mesothelin) (human, UniProt Q13421 296-598).
T4 construct: The construct coated on the plates is not described; also called human mesothelin
The experiment in a line: ELISA on human MSLN, B cell culture supernatant, 2nd screening.

The target of assay [10] is T3, human CD73. The experiment in a line: ELISA on control antigen human CD73, B cell culture supernatant, 2nd screening.
Assay [11] has as its target T4, human MSLN (mesothelin). The experiment in a line: ELISA on human MSLN, B cell culture supernatant, 1st screening.

Residue numbers refer to the chain shown, from its start.

T4 sequence (Q13421 other isoform, or with tags, fused parts or gaps limits assumed, form in doubt): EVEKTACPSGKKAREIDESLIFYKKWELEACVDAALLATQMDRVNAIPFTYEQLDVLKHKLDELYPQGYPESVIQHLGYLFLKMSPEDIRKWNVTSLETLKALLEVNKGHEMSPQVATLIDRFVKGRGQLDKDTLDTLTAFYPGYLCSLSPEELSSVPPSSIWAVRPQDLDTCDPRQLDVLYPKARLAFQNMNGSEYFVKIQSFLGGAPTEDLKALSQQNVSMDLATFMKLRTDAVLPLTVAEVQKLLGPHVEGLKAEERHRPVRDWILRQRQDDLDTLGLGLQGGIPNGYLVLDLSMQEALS

B1: xi155D5 (rabbit/human chimerized 155D5 mAb) (antibody, human IgG1, kappa, V domains shown)
VH: QSVKESGGRLVTPGTPLTLTCTVSGFSLNSYAMIWVRQAPGEGLEYIGFITTGGTTYYASWAKGRFTISRTSTTVDLKLTRPTTEDTATYFCARDRVKSYDDYGDLDAFEPWGPGTLVTISS
VL: ELVMTQTPSSVSAAVGGTVTINCQASQSISSYLAWYQQKPGQPPKLLIYYASTLASGVPSRFKGSGSGTEFTLTITGVQCDDAATYYCLGVYGYSFDDGIAFGGGTELEIKR
notes: Human IgG1 kappa constant regions; Unpaired Cys80 of the light chain is capped by a free cysteine after plain protein A purification; also called xi155D5 mAb
As for B1, in assay [1], the Kd stood at 0.051 nM, the koff came to 2.4e-05 s⁻¹ and the kon stood at 460000 M⁻¹ s⁻¹. Also, in assay [2], the kon worked out at 458000 M⁻¹ s⁻¹. In addition, in assay [3], the dissociation constant Kd was 0.324 nM and the koff worked out at 0.000149 s⁻¹.

B2: xi155D5/xi1-55-2 bivalent/bispecific antigen-binding molecule (bispecific antibody)
heavy 1: B1 VH
light 1: ELVMTQTPSSVSAAVGGTVTINCQASQSISSYLAWYQQKPGQPPKLLIYYASTLASGVPSRFKGSGSGTEFTLTITGVQCDDAATYYCLGVYGYSFDDGIAFGGGTELEIKRTVAAPSVFIFPPSDEQLKSGTASVVCLLNNFYPREAKVQWKVDNALQSGNSQESVTEQDSKDSTYSLSSTLTLSKADYEKHKVYACEVTHQGLSSPVTKSFNRGEC
heavy 2: QSVEESGGDLVKPEGSLTLTCTASGFSFSSSYWGCWVRQAPGKGPEWIACIYGGSSGTTYYPNWAKGRFSISKTSSTTVTLQMASLTAADTATYFCARVTNGGDWDFKLWGPGTLVTISS
light 2: ELVMTQTPASVEVAVGGTVTIKCQASQSINTYLAWYQQKPGQPPKLLIYRASTLASGVPSRFKGSGSGTEFTLTISDLECADAATYYCQQSVRVIDVDNTFGGGTEVVVKRTVAAPSVFIFPPSDEQLKSGTASVVCLLNNFYPREAKVQWKVDNALQSGNSQESVTEQDSKDSTYSLSSTLTLSKADYEKHKVYACEVTHQGLSSPVTKSFNRGEC
modifications: maleimido-PEG4-azide on Cys80, joined by copper-free click chemistry to the DBCO on Cys80 of the xi155D5 light chain; maleimido-PEG4-dibenzylcyclooctyne (DBCO) on Cys80, joined by copper-free click chemistry to the azide on Cys80 of the xi1-55-2 light chain
notes: Two papain Fabs linked chemically through their light chain Cys80 residues; mass 95,939 Da by mass spectrometry; also called biFab; bivalent/bispecific Fab-Fab; not shown: human IgG1 CH1 and hinge up to the papain cleavage site
As for B2, the Kd in assay [4] was determined as 0.15 nM; in assay [5] it was 0.31 nM; in assay [6] it was 0.185 nM; in assay [7], 0.121 nM. In addition, the koff in assay [4] amounted to 4.4e-05 s⁻¹; in assay [5], 0.000257 s⁻¹; in assay [6], 0.000189 s⁻¹; in assay [7], 3.91e-05 s⁻¹. Further, the kon worked out at 294000 M⁻¹ s⁻¹ in [4], 829000 M⁻¹ s⁻¹ in [5], 1.02e+06 M⁻¹ s⁻¹ in assay [6] and 322000 M⁻¹ s⁻¹ in [7].

B3: 33O11 (rabbit anti-MSLN mAb) (antibody, V domains shown)
VH: QSVEESGGRLVTPGTPLTLTCTVSGISLSSDAISWVRQAPGKGLEYIGIINGGGNTYYASWAKGRFTISKTSTTVDLKITSPTTEDTATYFCARGIQHGGGNSDYYYYGMDLWGPGTLVTVSS
VL: EVLMTQTPSSVSAAVGDTVTIKCQASQSISSVLSWYQQKPGQPPKLLIYLASTLASGVPSRFSGSRSGTEFTLTISDLECDDAATYYCQTNYGTSSSNYGFAFGGGTEVVVK
For the molecule B3, the binding result with human CD73 [8] is given as “no binding”. In the assay with human MSLN (mesothelin) [9], the “Optical Density (Anti-MSLN reactivity, 2nd screening)” value came to 0.504 OD. Moreover, in the assay with human CD73 [10], the “Optical Density (Anti-CD73 reactivity, 2nd screening)” value worked out at 0.0818 OD. In addition, the “Optical Density (Anti-MSLN reactivity, 1st screening)” value in the assay with human MSLN (mesothelin) [11] came to 0.282 OD.

B4: 237N18 (rabbit anti-MSLN mAb) (antibody, V domains shown)
VH: QSLEESGGRLVAPGTPLTLTCTVSGFSLSSYHMSWVRQAPGEGLEWIGGITAMSRTYYASWAKGRFTISKTSTTVHLKITSPTTEDTATYFCAREPGFVSNIWGPGTLVTVSL
VL: AVVLTQTASPVSGVVGGTVTIKCQASQNIYSNLAWYQQKPGQRPKLLMYDASTLASGVPSRFKGSGSGTQFTLTISDLECADAATYYCQSISSVDNNVFGGGTEVVVK
B4: the binding result with human CD73 [8] is recorded as “no binding”. In the assay with human MSLN (mesothelin) [9], the “Optical Density (Anti-MSLN reactivity, 2nd screening)” value is 0.668 OD. Moreover, the “Optical Density (Anti-CD73 reactivity, 2nd screening)” value with human CD73 [10] was found to be 0.0918 OD. In the assay with human MSLN (mesothelin) [11], the “Optical Density (Anti-MSLN reactivity, 1st screening)” value came out at 0.362 OD.

B5: 383I18 (rabbit anti-MSLN mAb) (antibody, V domains shown)
VH: QSVEESGGRLVTPGTPLTLTCTVSGFSLSSYAMGWVRQAPGEGLEWIGTISTGGITYYASWAKGRFTISKTSTTVDLKITSPTTEDTATYFCARVGSSGYLFYFFNLWGQGTLVTVSS
VL: VFELTQTPSPVSAAVGGTVTIRCQASQNIKSYLAWYQQKPGQPPKLLIYEASILASGVSSRFKGSGSGTEFTLTISDLECADAATYYCQSYYAASSNAFGGGTEVVVK
Turning to B5, the binding result with human CD73 [8] was “no binding”. The “Optical Density (Anti-MSLN reactivity, 2nd screening)” value in the assay with human MSLN (mesothelin) [9] was 0.296 OD. Also, in the assay with human CD73 [10], the “Optical Density (Anti-CD73 reactivity, 2nd screening)” value was 0.0744 OD. In the assay with human MSLN (mesothelin) [11], the “Optical Density (Anti-MSLN reactivity, 1st screening)” value turned out to be 0.249 OD.

B6: 178F16 (rabbit anti-MSLN mAb) (antibody, V domains shown)
VH: QSLEESGGRLVTPGTPLTLTCTASGFSLSNYAMTWVRQAPGKGLEYIGIISTGGITYYMDSAKGRFTISRTSTTVDLKMTSLTTEDTATYFCGRNAGGSYIFYYFDLWGQGTLVTVSS
VL: AFELTQTPSSVEAAVGGTVTIKCQASQSIYSYLAWYQQKPGQPPKLLIYSASTLASGVSSRFRGSGSGTEYILTISDLECADAATYYCQTYYDIVTSTFGGGTEVVVK
In the case of B6, the binding result with human CD73 [8] was “no binding”. In the assay with human MSLN (mesothelin) [9], the “Optical Density (Anti-MSLN reactivity, 2nd screening)” value amounted to 1.88 OD. Further, the “Optical Density (Anti-CD73 reactivity, 2nd screening)” value with human CD73 [10] amounted to 0.141 OD. In addition, in the assay with human MSLN (mesothelin) [11], the “Optical Density (Anti-MSLN reactivity, 1st screening)” value turned out to be 0.966 OD.

B7: 324O5 (rabbit anti-MSLN mAb) (antibody, V domains shown)
VH: B6 VH
VL: B6 VL with I72T
For B7, the binding result in the assay with human CD73 [8] was “no binding”. Also, the “Optical Density (Anti-MSLN reactivity, 2nd screening)” value with human MSLN (mesothelin) [9] turned out to be 2.22 OD. Moreover, the “Optical Density (Anti-CD73 reactivity, 2nd screening)” value in the assay with human CD73 [10] was 0.0801 OD. Further, the “Optical Density (Anti-MSLN reactivity, 1st screening)” value in the assay with human MSLN (mesothelin) [11] was 1.4 OD.
